Values joined by “and” are separate entries in the source; they are usually repeats but may differ in a detail not shown here. Equal values may be shown once.

The data set “cross-linking” deals with the molecule itself. The data set can be described thus: cross-linking.
Data set [1] concerns the molecule itself. The data set can be described thus: single-molecule TIRF photobleaching.
Data set [2] deals with the molecule itself. Kind of data set: SEC-MALS. (SEC sorts molecules by how far they enter the pores of the column.)
The data set “DLS” concerns the molecule itself. The data set can be described thus: DLS.
Data set [3] concerns the molecule itself. Kind of data set: SEC-MALS. This is another data set of the same source.
The data set “SAXS” deals with the molecule itself. The data set can be described thus: SAXS.

B1: mTurquoise2-fused full-length Arc (1-396), wild type (natural protein)
chain: MELDHMTTGGLHAYPAPRGGPAAKPNVILQIGKCRAEMLEHVRRTHRHLLTEVSKQVERELKGLHRSVGKLENNLDGYVPTGDSQRWKKSIKACLCRCQETIANLERWVKREMHVWREVFYRLERWADRLESMGGKYPVGSEPARHTVSVGVGGPEPYCQEADGYDYTVSPYAITPPPAAGELPEQESVGAQQYQSWVPGEDGQPSPGVDTQIFEDPREFLSHLEEYLRQVGGSEEYWLSQIQNHMNGPAKKWWEFKQGSVKNWVEFKKEFLQYSEGTLSREAIQRELDLPQKQGEPLDQFLWRKRDLYQTLYVDAEEEEIIQYVVGTLQPKFKRFLRHPLPKTLEQLIQRGMEVQDGLEQAAEPSVTPLPTEDETEALTPALTSESVASDRTQPE
What is called stoichiometry N is a count of units in the complex or per binding partner. In the case of B1, in the data set “cross-linking”, the “stoichiometry N” value was 2 and 3.

B2: recombinantly purified rat Arc^s113-119A with an N-terminal SNAP tag and a C-terminal AviTag (natural protein)
chain: MELDHMTTGGLHAYPAPRGGPAAKPNVILQIGKCRAEMLEHVRRTHRHLLTEVSKQVERELKGLHRSVGKLENNLDGYVPTGDSQRWKKSIKACLCRCQETIANLERWVKREAAAAAAAFYRLERWADRLESMGGKYPVGSEPARHTVSVGVGGPEPYCQEADGYDYTVSPYAITPPPAAGELPEQESVGAQQYQSWVPGEDGQPSPGVDTQIFEDPREFLSHLEEYLRQVGGSEEYWLSQIQNHMNGPAKKWWEFKQGSVKNWVEFKKEFLQYSEGTLSREAIQRELDLPQKQGEPLDQFLWRKRDLYQTLYVDAEEEEIIQYVVGTLQPKFKRFLRHPLPKTLEQLIQRGMEVQDGLEQAAEPSVTPLPTEDETEALTPALTSESVASDRTQPE
modifications: AlexaFluor488 SNAP substrate on the SNAP tag; C-terminally biotinylated (AviTag)
For B2, in data set [1], the binding result was “binds”.

B3: mTq2-fused full-length Arc^s113-119A (natural protein)
chain: MELDHMTTGGLHAYPAPRGGPAAKPNVILQIGKCRAEMLEHVRRTHRHLLTEVSKQVERELKGLHRSVGKLENNLDGYVPTGDSQRWKKSIKACLCRCQETIANLERWVKREAAAAAAAFYRLERWADRLESMGGKYPVGSEPARHTVSVGVGGPEPYCQEADGYDYTVSPYAITPPPAAGELPEQESVGAQQYQSWVPGEDGQPSPGVDTQIFEDPREFLSHLEEYLRQVGGSEEYWLSQIQNHMNGPAKKWWEFKQGSVKNWVEFKKEFLQYSEGTLSREAIQRELDLPQKQGEPLDQFLWRKRDLYQTLYVDAEEEEIIQYVVGTLQPKFKRFLRHPLPKTLEQLIQRGMEVQDGLEQAAEPSVTPLPTEDETEALTPALTSESVASDRTQPE
For B3, the “stoichiometry N” value in “cross-linking” came out at 2.

B4: mTq2-fused full-length Arc^s92-98A (natural protein)
chain: MELDHMTTGGLHAYPAPRGGPAAKPNVILQIGKCRAEMLEHVRRTHRHLLTEVSKQVERELKGLHRSVGKLENNLDGYVPTGDSQRWKKSIAAAAAAAQETIANLERWVKREMHVWREVFYRLERWADRLESMGGKYPVGSEPARHTVSVGVGGPEPYCQEADGYDYTVSPYAITPPPAAGELPEQESVGAQQYQSWVPGEDGQPSPGVDTQIFEDPREFLSHLEEYLRQVGGSEEYWLSQIQNHMNGPAKKWWEFKQGSVKNWVEFKKEFLQYSEGTLSREAIQRELDLPQKQGEPLDQFLWRKRDLYQTLYVDAEEEEIIQYVVGTLQPKFKRFLRHPLPKTLEQLIQRGMEVQDGLEQAAEPSVTPLPTEDETEALTPALTSESVASDRTQPE
Turning to B4, in the data set “cross-linking”, the “stoichiometry N” value came out at 2.

B5: synthetic peptide of the Arc oligomerization region (residues 99-132) (peptide)
peptide: QETIANLERWVKREMHVWREVFYRLERWADRLES
As for B5, the “stoichiometry N” value in the data set “SEC-MALS [2]” turned out to be 6.

B6: purified wild-type human Arc (untagged) (natural protein)
chain: MELDHRTSGGLHAYPGPRGGQVAKPNVILQIGKCRAEMLEHVRRTHRHLLAEVSKQVERELKGLHRSVGKLESNLDGYVPTSDSQRWKKSIKACLCRCQETIANLERWVKREMHVWREVFYRLERWADRLESTGGKYPVGSESARHTVSVGVGGPESYCHEADGYDYTVSPYAITPPPAAGELPGQEPAEAQQYQPWVPGEDGQPSPGVDTQIFEDPREFLSHLEEYLRQVGGSEEYWLSQIQNHMNGPAKKWWEFKQGSVKNWVEFKKEFLQYSEGTLSREAIQRELDLPQKQGEPLDQFLWRKRDLYQTLYVDADEEEIIQYVVGTLQPKLKRFLRHPLPKTLEQLIQRGMEVQDDLEQAAEPAGPHLPVEDEAETLTPAPNSESVASDRTQPE
Take B6: the “stoichiometry N” value in “DLS” fell in the range of 40 to 55 Arc molecules per capsid.

B7: purified Arc^s113-119A (untagged) (natural protein)
chain: MELDHRTSGGLHAYPGPRGGQVAKPNVILQIGKCRAEMLEHVRRTHRHLLAEVSKQVERELKGLHRSVGKLESNLDGYVPTSDSQRWKKSIKACLCRCQETIANLERWVKREAAAAAAAFYRLERWADRLESTGGKYPVGSESARHTVSVGVGGPESYCHEADGYDYTVSPYAITPPPAAGELPGQEPAEAQQYQPWVPGEDGQPSPGVDTQIFEDPREFLSHLEEYLRQVGGSEEYWLSQIQNHMNGPAKKWWEFKQGSVKNWVEFKKEFLQYSEGTLSREAIQRELDLPQKQGEPLDQFLWRKRDLYQTLYVDADEEEIIQYVVGTLQPKLKRFLRHPLPKTLEQLIQRGMEVQDDLEQAAEPAGPHLPVEDEAETLTPAPNSESVASDRTQPE
As to B7, the “stoichiometry N” value in the data set “SEC-MALS [3]” turned out to be 2.

B8: Arc^s113-119A with an N-terminal MBP fusion tag (natural protein)
chain: MELDHRTSGGLHAYPGPRGGQVAKPNVILQIGKCRAEMLEHVRRTHRHLLAEVSKQVERELKGLHRSVGKLESNLDGYVPTSDSQRWKKSIKACLCRCQETIANLERWVKREAAAAAAAFYRLERWADRLESTGGKYPVGSESARHTVSVGVGGPESYCHEADGYDYTVSPYAITPPPAAGELPGQEPAEAQQYQPWVPGEDGQPSPGVDTQIFEDPREFLSHLEEYLRQVGGSEEYWLSQIQNHMNGPAKKWWEFKQGSVKNWVEFKKEFLQYSEGTLSREAIQRELDLPQKQGEPLDQFLWRKRDLYQTLYVDADEEEIIQYVVGTLQPKLKRFLRHPLPKTLEQLIQRGMEVQDDLEQAAEPAGPHLPVEDEAETLTPAPNSESVASDRTQPE
Turning to B8, the “stoichiometry N” value in “SAXS” was 2.

(Values after doi:10.1101/667956 (bioRxiv, 2019).)
